Test results: a protein production outcome set (Wang et al. 2014)

Test: label from the status in PepcDB records

Row | Sequence | protein production
1 | TINSKFQSDVSAALKKYMGTDLTTGGYAAVMNPKTGGVYAMAGWDRNVKTGKLTQNDLAAIQDPIVMGSAVKPAMVSMALQAGVITPTSSTQDDQIIKLAGTAEKHSDFNPTGVKIPLTAEQALEDSSNTYMIQLALKMNGTPYVSGMSLNVSSNIWQKMRNGFGEFGLGSRTGIDLPGETAGYKGSITGSLASSFIDEAFGQYDTYSVIQMARFVSTIANGGYLVQPKVVASVLKSGKNGVRSSVASEVSPTIQGYVKMNNAQWNVIKTGMWDVANGSSQYNTGGTLIHELSPKVAAKTGTAESFVDGQQTQNDTLIMYSPYAPFAIAIAYVGDKVDSFGAVEKAAAAIYNAFWKDVMPKPND | failed
2 | MREETKCALIIDESLPLGLIANTAAILGAALGKNKPDLIGETVTDGSGIDHLGIVKIPIPILKGNAELLHQLSQKLLTDEFNDILTVDFTDVAQSIHTYEAYIEAFQSTAASDYRYFGIGICGDKKKVARLTGSLGLLRLEHHHHHH | not failed
3 | MSDMGVIVKTNARALIPLIGVFGSYIILHGHLTPGGGFQGGATIVGTALLFLIAFGVDEAKKRINKDLYSALEGIGGLVFLGAAMLGLSVAFFYNILWHKGPLFNGRPGTLLSAGFLPIMNLGVGLKVFTGLVSAVFALALFRRWKE | failed
4 | MGSRTHARKDASSEALQAPRLRTLLLTDLCDSTALVERIGDNAAAALFREHDRLVVKLQQHWRGRLIDRSDGLLLLFDRPIDGLGFALDYARGLKTMGDAHALTLCARQGLHVGEVLTWRNSDEAISIGAKPLEVEGLAKPTAARLMSMARPGQILLSAVAESLTHRAARELGNRADRLLWKSHGRWRFKGMPTPMEIYEVGEVGLTPLRMPKNSAKAWRDVPLWRRPAALVAEVGVVLAVGIAAWFFIRPQPAIAFASRDWVVVGDVRNLTGNTVLDGALEQALRISLEQSRYVNVLSDMKVRDTVTRMKRDPNTIVLDRSVASEVALRDGASAVLLPTVAEVGGKLRFSVELVDPRTQTTVYSEFVQGDGLPSALSSVDQVTRKLRQGLGEMVASIDKNSVPLPAVTTSSLDALRAYALGVEATAKGRWREGLELFDRAVGIDPTFALAYLGAARIKVAVSDRNGALPYLDNAVRFRQRLPARDQLYLDAWIAELRAVDTALPLWRTLASLYPDNFAGAANTSWHLFVANRFADALPYAQAADVVQDPLRSIASDRIGRILMAQGKVEAALQRFENSSDGDRAGPLRRQADALAVLGRYAEEQRTLDRIVDNGYANDDVVPLIDRTSIALDQANWANANAAVAQALERSKHTDDFSYRQFLVIGATTAAITGETASVGPGMSSTFEALVGAIKANGPAEPNLQDDAAMVLSLVSQAQRNGDDQFTARALSAIKPALAHETPVLADLRAIVEAQHLALSGDRVAAIARLPPGPDDLLQMRVTLYTLLHDSGRHAEALQQARWLSLQRGRAYIEANASQTLQPLNVAHTRLARLWTAESLYALGRTQEAREQAQAFVRAWPASHLPAYLRSRVERILSDSKAKITV | failed
5 | MVYLMLCLKIWRVVLKKNKTLVFISLFLLSVFLGGFYFYFDPNILYLLKGEKDFSKLIMGIDFYIDKKKFADAKKAMLFSSYYANTEFKWLALAKRAKLWALNTGDYHLMGEIVNLGVKVLPGNLKLRALEVYSKLKIGLLKDAYRIANEYLLNSEEYQGLYDEVFIKNLSSDNGILDFNKFIDKIYKEKDARIFEEIGLNLKNNAFLINAMLLYIEKKNIDSAKRILFRIKEDKSFLKELAYISYNLNDLDYTISNLKSIKNEEDPTLLFLLADAYFKKGDIKNAKNEYLKLYTRFPDYNVLVYLNLALIANSENDYKRAISYLNKANEVFKDNKIINYYLANIYFGIKNYFKANEIIANYKEDPLFFKLYFALNYANSKYEAKKSYLWRLFYKTEYNSSIAQFLAWNLLLYSDLKDLDLFFRIYNFSENKQDWYDFYKFYYYFLKRDFISSKKIIFDNKSQKYMFGIYYNLGVLSFSEKDYEEAERYFNKGISLLPSSFYDKDSTTPYERELVSKIYLKQGINYLYLGKMEKGKESILASYSFYETDEGRLYKNMIDTLRERNLNFD | failed
6 | MRRHRLSGQITLSMSVVVAIAVLMVFVGTFIFYSIYMTWFPPPPGPPPLLPEAPDFILIAIFLLLGLAIAIHAALRLTRRILAPLNSLAEGARKIAAGDLTARAVAGDRSLGETAQLVDDFNAMARRLEDAAESMTSWNAAIAHELRTPLTILRGRLQGLTDGVFEPSDELFRSLLVQVENLSRLVDDLRVVTLSDSQRLDMRVEPTDLANEVAQAVDAMRPALEGAGFSIRMTTEPVTLPCDGPRIRQALLALLENARRYATPGMIVIRMTLETFEVAIAVEDEGPGLSAEFAARAFDAFVRAEPSRSRQFGGSGLGLSVVRAIAEAHGGHARYSTSEKGGSVFEIVFPIDGASADSNAASCAPKV | failed
7 | MSQTKIEWADKVWNPVSGCTKISEGCQNCYAERMSKRLAGRCGYPAEEPFKVTPHPEKLGEPLKWRKPLRIFVNSMSDLFHADVPDKFIINVLSMIAEASHHTFLILTKRPERMRELLNHDTIANDVWLQTSRGVNAERSPWPLPNLWLGVSAENQAAADERIPILLQTPAAVRFVSVEPMLSEVNLSRYLKRPICKHWGRNGDPNIYGRYFWGKQALVGAGWVGIDWVICGGETGPGARPMHPVWVRDLRDQCRVAGTPFFFKSFGEYVRVGECMNEEDDEEFYSKSSAAGTNVQRLNLQGGMGYHGPKSIYMQRIGKKRAGRELDGRTWEEFPLEHHHHHH | failed
8 | MSESPTAGRASLAPLREFITGLSALLDEQPGEARILREGGALLARLVARDDWLPDAFAQPHPEYYQQMLLHCDSAERFSIVSFVWGPGQRTPIHDHTVWGLIGMLRGAEYSQPFVLDGSGRPVLHGEPTRLEPGHVEAVSPTVGDIHRVHNAYDDRVSISIHVYGANIGGVRRSVYTEAGERKPFISGYSNPYLPNPWDRSKDSAAS | not failed
9 | MRNTNLQAMIESAILAAFALVIDILPLSIKLPTGGSISFAMIPIFIIAYRWGFKSAFLGGLVWGLLQIVVGDAYILTPVQAFIEYFIAFAFIGFAGLFYRPIQKALLTSNENNLEQSSLGSRKDKPSSKQNEGKKVLAYIILATFIGSFARYFCHFIAGIIFWGQYAPKGQSAVLYSLIVNGSTMIGSYILCTVLLIFLFLTSPRLFKSISAYQLNANKKGA | failed
10 | MTENGRYEYIVIGSEAAGVGLVRELTAAGKKVLAVDKSKEKIELLEDEGFDAVIADPTDESFYRSLDLEGVSAVLITGSDDEFNLKILKALRSVSDVYAIVRVSSPKKKEEFEEAGANLVVLVADAVKQAFMDKIKKMETL | not failed
11 | MFIKAERLLIRKFEFKDWEAVHEYTSDSDVMKYIPEGVFTEEDTRNFVNKNMGENAKNFPVILIGENILVGHIVFHKYFGEHTYEIGWVFNPKYFNKGYASEAAQATLKYGFKEMKLHRIIATCQPENTPSYRVMEKIGMRREGYFKKCIPHGNEWWDEYYYAILEEE | not failed
12 | MIIIMAGGKSSRMGREKPVLKIAGKEMLLWVYEQAEAVGEVLVALSRHTPRTRELCLREGIEFVDTPGRGYVKDVQWLLREFGPFISLSSDIPFVKSSDIYSLLKEFDGKVSLTGVLPLEVVPKDLTPYSYMGYAIVGINGVAKEGEKFFVFSNPLLALNVNTPRELELAKRVAEIIRVRGIRLEHHHHHH | not failed
13 | MSERPVQSKLNNALNILKQGDLRGSYAELERLLRDDLENAEIDYTLKGVRFWEDKLEKAKKASTPLERAEMMISQWKPFLAYIHRQGEEKESIIYSLKCAVFTIALEFYADLFNEESELPDAEPYRKIGLCYKVLGNYERALDFLRYAAEIDKNSGSVLADLADCYALYGEIKFAKAFFREAFFIDPEGIELQFLESEIICRLINRVYNLGYRVEDIADWLPIYGVIDGVFNVKRELRAFEVGQLKQNIFLMEGEVQNASQEQKHKLVPRLINHYFWLIDHYVSVNESKSKIDDLLLRIKVLDQNIYNCYMR | failed
14 | MLFISATNTNAGKTTCARLLAQYCNACGVKTILLKPIETGVNDAINHSSDAHLFLQDNRLLDRSLTLKDISFYRYHKVSAPLIAQQEEDPNAPIDTDNLTQRLHNFTKTYDLVIVEGAGGLCVPITLEENMLDFALKLKAKMLLISHDNLGLINDCLLNDFLLKSHQLDYKIAINLKGNNTAFHSISLPYIELFNTRSNNPIVIFQQSLKVLMSFALK | not failed
15 | MRLPLNQRVAILLHEGTTGTIGKTGLALLRYSEAPIVAVIDRNCAGQSLREITGIYRYVPIVKSVEAALEYKPQVLVIGIAPKGGGIPDDYWIELKTALQAGMSLVNGLHTPLANIPDLNALLQPGQLIWDVRKEPANLDVASGAARTLPCRRVLTVGTDMAIGKMSTSLELHWAAKLRGWRSKFLATGQTGVMLEGDGVALDAVRVDFAAGAVEQMVMRYGKNYDILHIEGQGSLLHPGSTATLPLIRGSQPTQLVLVHRAGQTHNGNNPHVPIPPLPEVIRLYETVASGGGAFGTVPVVGIALNTAHLDEYAAKEAIAHTIAETGLPCTDVVRFGADVLLDAVMQN | not failed
16 | MKFGRRATSRTEPGKRCVARPRYNSAMSEFTDSAAGRSATSPADASSSALRRLRAIQPLPDQLISQIAAGEVVERPASVVKELVENALDAGAGTLRILLDEGGVKRISITDDGCGIPAAELPLALMRHATSKIRSLAELEAVATLGFRGEALASIASVAEMFITSRTEDDAHATRIDAQTGVLAPAAGTRGTTIEVRELYFSTPARRKFLKSEQTEFGHCLEMIRRAALARPDVAISVLHNGRAVEHWNASEPAARVAKILGDGFATAHLPLDERAGPLAVYGCAGLPTASRGRADQQYFFVNGRFVRDKLLTHAVRAAYEDVLHGDRYPSYVLFLDLPPEAVDVNVHPSKIEVRFRDSRSIHQFVFHAVQRALARHAGASPETTAGGHAAHLSPVEPAQAGSPAAPSASFVRPDAAAAGAGVGHPAPGNTWLRQSRMTQGTLPVAQPLALYDALFGRKDSGAGTPHGTTGVLEARDAPDAPGAPLFASAPGGAAMPAFSAAGASDPAMHDEQPLGFAVGQIHGIYVLAQNARGLVIVDMHAAHERILYEQFKRALADRTVAVQTLLIPVSMTATPVEVGTAEEERETLDALGFDLAVLSPTTLAIRAVPALLKDADLQALARAVLADLHAFGGSRVLTERQHELLGTLACHHAVRANRRLTLDEMNALLRQMEATERADQCNHGRPTWYQLTLGDLDKLFMRGQ | failed
17 | MKSKIFSTSLAFAFLLLITTVASAGQEIQITPYGERGLNPAIYDNKIAWLDKYINGSLHLRDLSTGKEIQITEDPWYSYLAVYNDKIVWGPGGQNIYLYNISTNHKTLLSIPESENQGSRDSLTIYGDKIVWRDQSGGYQDIYMYDLSTYNKTRITTNQSTKDPVIYGDKIVWQEDPSFGFGSSYHDIYVYNLSTSNKTRVTTNRSASSPNVYGDRIVYMESNNIYFHNLSTSLETQITFNGSRKDKLAIYGDRIVWQDDRNGNWDVYVYDLSEDKEIQITNDESDQLNPAIYGDKIVWEDYRNDRENMYYCSIYMYDFSAKPTMPFASFSANITSKSGNMPLTVLFTCNSTGGTPTSWYWDFGDGINSKHAQTATHTFKKPGTYDVSLTVTNFAGNSTLKKSNYITVTPQQAPIADFFSPEVYHANTYGGSVPTKTVSFVDNSTGSPTSWLWDFGDGNTSTEQNPTHVYDVEGGYTVNLTVKNVVGSNTTSKYGYVLVGLGDGSVAPEYFSSSVTSGDAPLKVTFHGGTGYANDWTFGDGSRQSVGENQTVEHTYLEPGQYTVSLSEYNVGGTAAITKYHYITVTGLTRPVASFTSEKVSVPMSLTIAFTDTSIGKPTSWYWDFGDGDSSTEQNPTHTYSAAGNYTVSLTASNENSTNSTFRVIDVFKTTGPFAYVISGNNISVIDTATDKVVDTIEIGSGLVGVAVNPTGTKVYVANEGNNTVSVIDTSISKVIATVNGLNSPYAIAITPDGKKAYVTNNSGAVFENGTVYVIDTGTSTVMNTVNVGSVPHGVAVSLDGAKVYVTNYYDISVIDTATNKVTATLNVGQYPDGIAVSPDGTKIYVTNGGSDNVSVIDTETNNVTATLPVGDNPVRVAVTPDGTKLYVTNYKGNTISVINTTTNTVTATIPGDGPYGVSITPDGKKVYVTNLGSDLSGKTVSVIDTAANTVIATVKVGSYPREVAVAPYGK | failed
